# Results published in patent US6218112A, “Optimization of gene delivery and gene delivery system” (Cobra Therapeutics Limited, priority 1997, dated 2001).
# * marks the point of attachment. Acm = CC(=O)NC*
# Key:
# [1] = without salt at >20 μg/ml
# [2] = system: plasmid nucleic acid pRSVLuc; test: Surface plasmon resonance (BIAcore) binding kinetics of peptides/conjugates to immobilized biotinylated plasmid DNA; conditions: apparent rate constant for dissociation; SPR, PBS, 25° C.
# Method: In the examples described below, SPR was detected using the BIAcore system. This machine contained an SPR detector and an integrated microfluidic cartridge which is engineered such that an analyte solution (cationic peptide) is continuously passed over the sensor chip. The sensor chip consists of a glass plate coated with a thin film of gold covered in a layer of carboyxymethyl dextran. The chip used has a dextran layer to which streptavidin is covalently attached. The chip is prepared for use by adding biotinylated nucleic acid which will be bound to the chip via the streptavidin-biotin interaction, and the same chip is used in a series of experiments.
# As material binds to the immobilized nucleic acid molecule on the sensor chip, the SPR angle of plane polarized light shining on the surface of the chip is monitored by the detector. Changes in angle are defined as resonance units (RU) and data are collected every second. Background effects are detected and automatically subtracted by the use of a control flow cell in line with the nucleic acid flow cell.
# A typical sensorgram has three phases: an association phase, an equilibrium phase and a dissociation phase (see FIG. 1). The rise in signal occurs as more peptide binds to the immobilized plasmid DNA until equilibrium conditions are reached. The height of the peak is directly proportional to the mass of peptide bound. If the flow continues with buffer containing no peptide, peptide begins to dissociate from the complex and the resonance signal is reduced. The sensorgram can be used to compute apparent rate constants for each of the three individual processes.
# (1) dC/dt=ka [PF ] [Pmax -PB ]-kd [PB ]
# Measurement of Binding Kinetics by Surface Plasmon Resonance
# A 6 kilobase (kb) plasmid DNA (pRSVLuc) was biotinylated using photoactivatable biotin (Pierce and Warriner) as per manufacturer's instructions.
# A sensor chip with immobilized streptavidin (SA5) was conditioned following manufacturer's instructions, i.e., three one-minute injections of 1 M NaCl: 50 mM NaOH followed by one 1 min injection of 0.5% SDS. Flow rate on the BlAcore sensing device was 20 μl per min, running buffer was phosphate buffered saline (PBS). Flow path was flow cells 1 and 2.
# The flow path was switched to flow cell 2 only and the flow rate was reduced to 10 μl per minute. Biotinylated plasmid at a concentration of […] in 0.5M NaCl was injected for 3 mins.
# Phosphate buffered saline was used as running buffer at a flow rate of 20 μl per minute. The flow path was over flow cells 1 and 2. Flow cell 1 was used as a reference cell. The experiments were carried out at a temperature of 25° C.
# Peptides were injected at various concentrations for three minutes. The injection was followed by a 5 min dissociation phase before the injection port was washed. The sensor chip was regenerated by the injection of 2M NaCl for 1 min. If necessary, this injection was repeated to bring the response back down to baseline before the next peptide sample was injected.
# The data was analysed using the methods described in the handbook (BIAevaluation 2.1. Software Handbook, Pharmacia Biosensor AB, Uppsala, Sweden).
# Essentially the plots were evaluated as follows: The dissociation constant, kd, was determined first. A curve or family of curves (same NBC at different concentrations) were plotted as response (Y) versus time as Ln (Yo/Y) versus time. In the area where the Ln(Yo/Y) curve was linear, a fit of the default dissociation model [AB]=[A]+[B] was made. The association constant, ka, was then calculated by fitting the related association model on that part of the association curve where a plot of In(abs(dY/dt) versus time was linear. KD were approximated by dividing the calculated kd with the calculated ka.
substance,measurement,setting,value
NH2-KPKAAKPKKPKKKRKVEKKSPKKAKKPAAC(Acm)-COOH (H-KPKAAKPKKPKKKRKVEKKSPKKAKKPAAC(Acm)-OH; SMILES CC(=O)NCSC[C@H](NC(=O)[C@H](C)NC(=O)[C@H](C)NC(=O)[C@@H]1CCCN1C(=O)[C@H](CCCCN)NC(=O)[C@H](CCCCN)NC(=O)[C@H](C)NC(=O)[C@H](CCCCN)NC(=O)[C@H](CCCCN)NC(=O)[C@@H]1CCCN1C(=O)[C@H](CO)NC(=O)[C@H](CCCCN)NC(=O)[C@H](CCCCN)NC(=O)[C@H](CCC(=O)O)NC(=O)[C@@H](NC(=O)[C@H](CCCCN)NC(=O)[C@H](CCCNC(=N)N)NC(=O)[C@H](CCCCN)NC(=O)[C@H](CCCCN)NC(=O)[C@H](CCCCN)NC(=O)[C@@H]1CCCN1C(=O)[C@H](CCCCN)NC(=O)[C@H](CCCCN)NC(=O)[C@@H]1CCCN1C(=O)[C@H](CCCCN)NC(=O)[C@H](C)NC(=O)[C@H](C)NC(=O)[C@H](CCCCN)NC(=O)[C@@H]1CCCN1C(=O)[C@@H](N)CCCCN)C(C)C)C(=O)O) [NBC2],solubility of complexes,[1],insoluble
same,kd,[2],0.00938 s⁻¹
